According to patent publication US20080279841A1, “Novel Therapeutic Molecular Variants And Uses Thereof” (MEDVET SCIENCE PTY LTD., priority 2000, published 2008):
Entries after “also recorded” stand apart in the source; their conditions may differ. Read-outs that look alike come from different tables or passages of the source.

Tests used:
[1] = biological target: wild-type sphingosine kinase (Homo sapiens, UniProt Q9NYA1); conditions: chemical inhibitor hitherto used widely; cited from earlier work
[2] = Sphingosine kinase activity of lysates of HEK293/HEK293T cells transfected with hSK or mutant hSK; assay type: biochemical, human; conditions: for sphingosine kinase (catalytic) activity of the variant itself: transfected HEK293 cells (FIG. 2); for Vmax: standardised for the expression levels of the two recombinant proteins
Protocol: (§1) Cell Culture and Transfection—Human embryonic kidney cells (HEK293T, ATCC CRL-1573) cells were cultured on Dulbecco's modified Eagle's medium (DMEM; CSL Biosciences, Parkville, Austrlia) containing 10% fetal calf serum, 2 mM glutamine, 0.2% (w/v) sodium bicarbonate, penicillin (1.2 mg/ml), and gentamycin (1.6 mg/ml). Transfections were performed using the calcium phosphate precipitation method (Graham & van der Eb, 1973). Cells were harvested and lysed by sonication (2 watts for 30 s at 4° C.) in lysis buffer containing 50 mM Tris/HCl (pH 7.4), 10% glycerol, 0.05% Triton X-100, 150 mM NaCl, 1 mM dithiothreitol, 2 mM Na3VO4 10 mM NaF, and 1 mM EDTA. Protein concentrations in cell homogenates were determined with either the Coomassie Brillant Blue (Sigma) or Bichinchoninic acid (Pierce) reagents using BSA as standard.
as §1, with “Australia)” for “Austrlia)”, “Na3VO4,” for “Na3VO4”, “with” for “with either”, “Brilliant” for “Brillant”, “reagent” for “or Bichinchoninic acid (Pierce) reagents”
(§2) Kinetic parameters were calculated using a non-linear regression program.

[3] = tested on: endogenous sphingosine kinase; assay: Activation of endogenous sphingosine kinase activity by TNFα, IL-1 and PMA in HEK293 cells expressing the variant; assay type: cell-based, human; conditions: for effect on increases in sphingosine kinase activity after activating agents: 100 units/ml IL-1 10 min, 100 ng/ml PMA 30 min (FIGS. 3 & 4)
Protocol: HEK293 cells transfected with either pcDNA3-G82DSK or empty pcDNA3 vector were treated with 1 ng/ml TNFα and 100 units/ml IL-1 for 10 min and 100 ng/ml PMA for 30 min.
FIG. 4 is a graphical representation of time course of sphingosine kinase activation by TNFα in HEK293 cells expressing G82D SK. HEK293 cells transfected with either pcDNA3-G82DSK or empty pcDNA3 vector were treated with 1 ng/ml TNFα. Cells were harvested at various times over 45 min. of TNFα treatment with the cell lysates assayed for sphingosine kinase activity.
as §1

[4] = tested on: overexpressed wild-type sphingosine kinase; assay: Activation of overexpressed wild-type sphingosine kinase by TNFα in cotransfected HEK293 cells; assay type: cell-based, human; conditions: for effect on activation of overexpressed wild-type sphingosine kinase: HEK293 cells cotransfected with equal proportions, 1 ng/ml TNFα 10 min (FIG. 5)
Protocol: HEK293 cells, either transfected with pcDNA3-SK, or cotransfected with equval proportions of pcDNA3-SK and pcDNA3-G82DSK were treated with 1 ng/ml TNFα for 10 min. Cells were then harvested and the SK activity in the cell lysates determined.
as §1

[5] = tested on: sphingosine kinase stimulated by the oncogene Ras; assay: Activation of SK by the oncogene Ras in 3T3 fibroblasts; assay type: cell-based; conditions: 3T3 fibroblasts (FIG. 6)
Protocol: (§3) A. NIH 3T3 cells were transfected with V12-Ras, v-Src or V12-Ras plus G82D-SK, SphK activity was measured 48 h after transfection. B. Focus formation assays were performed in V12-Ras, v-Src, SphK, or V12-Ras plus G82D-SK transfected NIH 3T3 cells in the absence or presence of DMS (2.5 μM) over two weeks.
(§4) For focus formation assay, low passage NIH 3T3 cells were transfected with the V12 mutant H-ras, v-SRC (gifts from Dr. Julian Downward^2), SphK, G82D mutant SphK expression vectors or empty vector using Lipofectamine Plus as described above. Two days later, the transfected cells were split to 6-well plates. After reaching confluence, they were kept for two weeks in DMEM containing 5% calf serum. The foci were visualized and scored after staining with 0.5% crystal violet. For soft agar assay, suspensions of 1×10^4 cells from the stable transfected pools in a growth medium containing 0.33% agar were overlaid onto 0.6% agar gel in the absence or presence of DMS at various concentrations. After 14-days incubation colonies were stained with 0.1 mg/ml MTT and those greater than 0.1 mm in diameter were scored as positive.

protein kinase C = assay: Protein kinase C activity in situ in HEK293 cells (TNFα or PMA); assay type: cell-based, human; conditions: TNFα or PMA (FIG. 7)
Protocol: (§5) Neutral sphingomyelinase activity was determined using [choline-methyl-^14C]sphingomyelin as substrate, essentially as previously described (Wiegmann et al., 1994). Briefly, whole cell lysates, prepared as described above, were added to an equal volume of 100 mM Tris/HCl buffer (pH 7.4) containing 0.2% Triton X-100, 10 mM MgCl2 and [choline-methyl-^14C]sphingomyelin (50,000 cpm/assay) and incubated at 37° C. for 60 min. Radioactive phosphorylcholine produced was then extracted with chloroform/methanol (2:1, v/v) and quantified in the aqueous phase by scientillation counting. The measurement of PKC activity in situ was performed as described previously (Xia et al., 1996). Briefly, cells were seeded in 24-well plates and maintained in culture medium until 70-80% confluent. After the indicated treatments, the cells were washed with DMEM and placed in 60 μl of buffered salt solution (137 mM NaCl, 5.4 mM KCl, 0.3 mM Na2HPO4, 0.4 mM KH2PO4, 5.5 mM glucose, and 20 mM HEPES) supplemented with 50 μg/ml digitonin, 10 mM MgCl2, 25 mM β-glycerophosphate, and 10 μM [γ^32P]ATP (5000 cpm/pmol). A PKC-specific peptide substrate ([sequence]) was then added (to 2001) in the presence of 5 mM EGTA and 2.5 mM CaCl2. […] The PKC-dependent phosphorylated peptide substrate bound to the filter was quantified by scintillation counting.

ERK = ERK activation by TNFα in HEK293 cells (Western blot); assay type: cell-based, human; conditions: TNFα (FIG. 9)
Protocol: Western Blotting—SDS-PAGE was performed on cell lysates according to the method of Laemmli using 12% acrylamide gels. Proteins were blotted to nitrocellulose and the membranes blocked overnight at 4° C. in PBS containing 5% skim milk and 0.1% Triston X-100. Sphingosine kinase expression levels were analysed with the M2 anti-FLAG antibody (Sigma). ERK activation in response to agonists was followed in cells serum-starved for 4 h using anti-ERK1/2 (Zymed, San Francisco, Calif.) and anti-phospho-ERK1/2 (Promega, Madison, Wis.) antibodies. Immunocomplexes were detected after conjugation to either HRP anti-mouse (Pierce) or anti-rabbit (Selinus/AMRAD, Melbourne, Australia) IgG using an enhanced chemiluminescence kit (Amersham).

NIH 3T3 cells = assay: Focus formation (transformation) assay in V12-Ras transfected NIH 3T3 cells; assay type: cell-based; conditions: V12-Ras plus G82D-SK transfected NIH 3T3 cells, two weeks (FIG. 11)
Protocol: as §3, §4

sphingomyelinase = conditions: HEK293 cells, TNF (FIG. 8)
Protocol: as §5

[6] = Kinetic analysis of hSK with ATP; assay type: biochemical, human
Protocol: Kinetic analyses were performed with ATP in the concentration range of 0-2 mM and 0-40 mM for hSK^WT and hSK^G82A, respectively. In both cases sphingosine was present at 100 μM.
as §2

[7] = Kinetic analysis of hSK with sphingosine; assay type: biochemical, human; conditions: for Km: sphingosine 0-2 mM, ATP 1 mM (hSK^WT), 40 mM (hSK^G82A), non-linear regression
Protocol: Kinetic analyses were performed with sphingosine in the concentration range of 0-2 mM for both hSK^WT and hSK^G82A. ATP was present at 1 mM and 40 mM for hSK^WT and hSK^G82A, respectively.
as §2

CCCCCCCCCCCCC/C=C/[C@@H](O)[C@H](CO)N(C)C [DMS, N′N-dimethylsphingosine]
effect on wild-type sphingosine kinase function [1]: totally eliminates

B1: G82DSK: human sphingosine kinase mutant, substitution of the glycine at position 82 to aspartic acid (protein)
chain: MDPAGGPRGVLPRPCRVLVLLNPRGGKGKALQLFRSHVQPLLAEAEISFTLMLTERRNHARELVRSEELGRWDALVVMSGDDLMHEVVNGLMERPDWETAIQKPLCSLPAGSGNALAASLNHYAGYEQVTNEDLLTNCTLLLCRRLLSPMNLLSLHTASGLRLFSVLSLAWGFIADVDLESEKYRRLGEMRFTLGTFLRLAALRTYRGRLAYLPVGRVGSKTPASPVVVQQGPVDAHLVPLEEPVPSHWTVVPDEDFVLVLALLHSHLGSEMFAAPMGRCAAGVMHLFYVRAGVSRAMLLRLFLAMEKGRHMEYECPYLVYVPVVAFRLEPKDGKGVFAVDGELMVSEAVQGQVHPNYFWMVSGCVEPPPSWKPQQMPPPEEPL
sphingosine kinase (catalytic) activity of the variant itself [2]: no sphingosine kinase activity | sphingosine kinase (catalytic) activity of the variant itself ([2]; listed as G82D): catalytically inactive | effect on increases in sphingosine kinase activity after activating agents ([3]; 1 ng/ml TNFα): totally suppresses; also recorded: only eliminates activation | effect on increases in sphingosine kinase activity after activating agents ([3]; 1 ng/ml TNFα, listed as G82D SK): blocks activation | effect on TNF mediated sphingosine kinase activation over time ([3]; 1 ng/ml TNFα, time course over 45 min (FIG. 4)): inhibits TNF mediated activation at all time point | effect on endogenous baseline sphingosine kinase activity ([3]; no stimulus (FIG. 2)): does not suppress | effect on activation of overexpressed wild-type sphingosine kinase [4]: activation is decreased | effect on activation of overexpressed wild-type sphingosine kinase ([4]; listed as G82D SK): decreases activation | effect on overexpressed baseline sphingosine kinase levels ([4]; HEK293 cells overexpressing sphingosine kinase (FIG. 5)): not altered | effect on sphingosine kinase stimulated by the oncogene Ras [5]: inhibits | effect on sphingosine kinase stimulated by the oncogene Ras ([5]; listed as G82D SK): inhibiting activation | effect on activation of protein kinase C (protein kinase C): does not depress | effect on activation of protein kinase C (protein kinase C; listed as G82D SK): does not effect activation | effect on activation of erk by TNF (ERK): inhibits | effect on activation of erk by TNF (ERK; listed as G82D SK): prevents ERK activation | effect on Ras transformation (focus formation) (NIH 3T3 cells): inhibits Ras transformation | effect on activation of sphingomyelinase (sphingomyelinase): does not depress | effect on activation of sphingomyelinase (sphingomyelinase; listed as G82D SK): does not inhibit activation

B2: hSK^G82A: human sphingosine kinase mutant, substitution of the glycine at position 82 to alanine (protein, UniProt Q9NYA1 1-384, looked up, variant G82A)
Sphingosine kinase 1: MDPAGGPRGVLPRPCRVLVLLNPRGGKGKALQLFRSHVQPLLAEAEISFTLMLTERRNHARELVRSEELGRWDALVVMSGDALMHEVVNGLMERPDWETAIQKPLCSLPAGSGNALAASLNHYAGYEQVTNEDLLTNCTLLLCRRLLSPMNLLSLHTASGLRLFSVLSLAWGFIADVDLESEKYRRLGEMRFTLGTFLRLAALRTYRGRLAYLPVGRVGSKTPASPVVVQQGPVDAHLVPLEEPVPSHWTVVPDEDFVLVLALLHSHLGSEMFAAPMGRCAAGVMHLFYVRAGVSRAMLLRLFLAMEKGRHMEYECPYLVYVPVVAFRLEPKDGKGVFAVDGELMVSEAVQGQVHPNYFWMVSGCVEPPPSWKPQQMPPPEEPL
Vmax [2]: 32 percentage of the maximum velocity calculated for SK^WT | catalytic activity relative to wildtype hSK ([2]; transfected HEK293T cell lysates (FIG. 12)): ~5% | affinity for ATP compared with wildtype hSK ([6]; FIG. 13): considerably lower affinity for ATP | affinity for sphingosine compared with wildtype hSK ([7]; FIG. 14): remains unaffected | Km [7]: 15.5 µM

B3: hSK^WT: wild-type human sphingosine kinase (SK-1), recombinant, FLAG tagged, expressed in HEK293T cells (protein, UniProt Q9NYA1 1-384, looked up)
Sphingosine kinase 1: MDPAGGPRGVLPRPCRVLVLLNPRGGKGKALQLFRSHVQPLLAEAEISFTLMLTERRNHARELVRSEELGRWDALVVMSGDGLMHEVVNGLMERPDWETAIQKPLCSLPAGSGNALAASLNHYAGYEQVTNEDLLTNCTLLLCRRLLSPMNLLSLHTASGLRLFSVLSLAWGFIADVDLESEKYRRLGEMRFTLGTFLRLAALRTYRGRLAYLPVGRVGSKTPASPVVVQQGPVDAHLVPLEEPVPSHWTVVPDEDFVLVLALLHSHLGSEMFAAPMGRCAAGVMHLFYVRAGVSRAMLLRLFLAMEKGRHMEYECPYLVYVPVVAFRLEPKDGKGVFAVDGELMVSEAVQGQVHPNYFWMVSGCVEPPPSWKPQQMPPPEEPL
modifications: FLAG tag
notes: wild-type human sphingosine kinase (SK-1), recombinant, FLAG tagged, expressed in HEK293T cells
Vmax [2]: 100 percentage of the maximum velocity calculated for SK^WT | Km ([6]; sphingosine 100 μM, ATP 0-2 mM (hSK^WT), 0-40 mM (hSK^G82A), non-linear regression): 115 µM | Km [7]: 12.1 µM
